From paper PMC5002983, “Hepatocyte Growth Factor Modulates MET Receptor Tyrosine Kinase and β-Catenin Functional Interactions to Enhance Synapse Formation” (eNeuro, 2016)

B1: synapsin 1 (natural protein)
chain: not shown
notes: synapsin 1, mouse, endogenous; also called Syn 1; source: endogenous, lysate of crude synaptosomes from P14 mouse neocortex; endogenous, primary mouse neocortical neurons (14 DIV)
B2: MET receptor tyrosine kinase (receptor, UniProt P16056 25-1379, looked up)
chain: ECKEALVKSEMNVNMKYQLPNFTAETPIQNVVLHGHHIYLGATNYIYVLNDKDLQKVSEFKTGPVLEHPDCLPCRDCSSKANSSGGVWKDNINMALLVDTYYDDQLISCGSVNRGTCQRHVLPPDNSADIQSEVHCMFSPEEESGQCPDCVVSALGAKVLLSEKDRFINFFVGNTINSSYPPGYSLHSISVRRLKETQDGFKFLTDQSYIDVLPEFLDSYPIKYIHAFESNHFIYFLTVQKETLDAQTFHTRIIRFCSVDSGLHSYMEMPLECILTEKRRKRSTREEVFNILQAAYVSKPGANLAKQIGASPSDDILFGVFAQSKPDSAEPVNRSAVCAFPIKYVNDFFNKIVNKNNVRCLQHFYGPNHEHCFNRTLLRNSSGCEARSDEYRTEFTTALQRVDLFMGRLNQVLLTSISTFIKGDLTIANLGTSEGRFMQVVLSRTAHLTPHVNFLLDSHPVSPEVIVEHPSNQNGYTLVVTGKKITKIPLNGLGCGHFQSCSQCLSAPYFIQCGWCHNQCVRFDECPSGTWTQEICLPAVYKVFPTSAPLEGGTVLTICGWDFGFRKNNKFDLRKTKVLLGNESCTLTLSESTTNTLKCTVGPAMSEHFNVSVIISNSRETTQYSAFSYVDPVITSISPRYGPQAGGTLLTLTGKYLNSGNSRHISIGGKTCTLKSVSDSILECYTPAQTTSDEFPVKLKIDLANRETSSFSYREDPVVYEIHPTKSFISGGSTITGIGKTLNSVSLPKLVIDVHEVGVNYTVACQHRSNSEIICCTTPSLKQLGLQLPLKTKAFFLLDGILSKHFDLTYVHNPVFEPFEKPVMISMGNENVVEIKGNNIDPEAVKGEVLKVGNQSCESLHWHSGAVLCTVPSDLLKLNSELNIEWKQAVSSTVLGKVIVQPDQNFAGLIIGAVSISVVVLLLSGLFLWMRKRKHKDLGSELVRYDARVHTPHLDRLVSARSVSPTTEMVSNESVDYRATFPEDQFPNSSQNGACRQVQYPLTDLSPILTSGDSDISSPLLQNTVHIDLSALNPELVQAVQHVVIGPSSLIVHFNEVIGRGHFGCVYHGTLLDNDGKKIHCAVKSLNRITDIEEVSQFLTEGIIMKDFSHPNVLSLLGICLRSEGSPLVVLPYMKHGDLRNFIRNETHNPTVKDLIGFGLQVAKGMKYLASKKFVHRDLAARNCMLDEKFTVKVADFGLARDMYDKEYYSVHNKTGAKLPVKWMALESLQTQKFTTKSDVWSFGVLLWELMTRGAPPYPDVNTFDITIYLLQGRRLLQPEYCPDALYEVMLKCWHPKAEMRPSFSELVSRISSIFSTFIGEHYVHVNATYVNVKCVAPYPSLLPSQDNIDGEGNT
notes: MET receptor tyrosine kinase (hepatocyte growth factor receptor), mouse, endogenous; Endogenous protein, precipitated with goat anti-MET (R&D Systems); With HGF the receptor is phosphorylated (pMET blot); source: endogenous, lysate of crude synaptosomes from P14 mouse neocortex; endogenous, primary mouse neocortical neurons (14 DIV)
B3: β-catenin (natural protein, UniProt Q02248 1-781, looked up)
chain: MATQADLMELDMAMEPDRKAAVSHWQQQSYLDSGIHSGATTTAPSLSGKGNPEEEDVDTSQVLYEWEQGFSQSFTQEQVADIDGQYAMTRAQRVRAAMFPETLDEGMQIPSTQFDAAHPTNVQRLAEPSQMLKHAVVNLINYQDDAELATRAIPELTKLLNDEDQVVVNKAAVMVHQLSKKEASRHAIMRSPQMVSAIVRTMQNTNDVETARCTAGTLHNLSHHREGLLAIFKSGGIPALVKMLGSPVDSVLFYAITTLHNLLLHQEGAKMAVRLAGGLQKMVALLNKTNVKFLAITTDCLQILAYGNQESKLIILASGGPQALVNIMRTYTYEKLLWTTSRVLKVLSVCSSNKPAIVEAGGMQALGLHLTDPSQRLVQNCLWTLRNLSDAATKQEGMEGLLGTLVQLLGSDDINVVTCAAGILSNLTCNNYKNKMMVCQVGGIEALVRTVLRAGDREDITEPAICALRHLTSRHQEAEMAQNAVRLHYGLPVVVKLLHPPSHWPLIKATVGLIRNLALCPANHAPLREQGAIPRLVQLLVRAHQDTQRRTSMGGTQQQFVEGVRMEEIVEGCTGALHILARDVHNRIVIRGLNTIPLFVQLLYSPIENIQRVAAGVLCELAQDKEAAEAIEAEGATAPLTELLHSRNEGVATYAAAVLFRMSEDKPQDYKKRLSVELTSSLFRTEPMAWNETADLGLDIGAQGEALGYRQDDPSYRSFHSGGYGQDALGMDPMMEHEMGGHHPGADYPVDGLPDLGHAQDLMDGLPPGDSNQLAWFDTDL
notes: β-catenin, mouse, endogenous; Endogenous protein, precipitated with mouse anti-β-catenin (BD Biosciences); With HGF a part of it is phosphorylated at Y142; source: endogenous, lysate of crude synaptosomes from P14 mouse neocortex; endogenous, primary mouse neocortical neurons (14 DIV)
B4: N-cadherin (natural protein, UniProt P15116 160-906, looked up)
chain: DWVIPPINLPENSRGPFPQELVRIRSDRDKNLSLRYSVTGPGADQPPTGIFIINPISGQLSVTKPLDRELIARFHLRAHAVDINGNQVENPIDIVINVIDMNDNRPEFLHQVWNGSVPEGSKPGTYVMTVTAIDADDPNALNGMLRYRILSQAPSTPSPNMFTINNETGDIITVAAGLDREKVQQYTLIIQATDMEGNPTYGLSNTATAVITVTDVNDNPPEFTAMTFYGEVPENRVDVIVANLTVTDKDQPHTPAWNAAYRISGGDPTGRFAILTDPNSNDGLVTVVKPIDFETNRMFVLTVAAENQVPLAKGIQHPPQSTATVSVTVIDVNENPYFAPNPKIIRQEEGLHAGTMLTTLTAQDPDRYMQQNIRYTKLSDPANWLKIDPVNGQITTIAVLDRESPNVKNNIYNATFLASDNGIPPMSGTGTLQIYLLDINDNAPQVLPQEAETCETPEPNSINITALDYDIDPNAGPFAFDLPLSPVTIKRNWTINRLNGDFAQLNLKIKFLEAGIYEVPIIITDSGNPPKSNISILRVKVCQCDSNGDCTDVDRIVGAGLGTGAIIAILLCIIILLILVLMFVVWMKRRDKERQAKQLLIDPEDDVRDNILKYDEEGGGEEDQDYDLSQLQQPDTVEPDAIKPVGIRRLDERPIHAEPQYPVRSAAPHPGDIGDFINEGLKAADNDPTAPPYDSLLVFDYEGSGSTAGSLSSLNSSSSGGDQDYDYLNDWGPRFKKLADMYGGGDD
notes: N-cadherin (cadherin-2), mouse, endogenous; Endogenous protein, precipitated with rabbit anti-N-cadherin (Santa Cruz Biotechnology); source: endogenous, lysate of crude synaptosomes from P14 mouse neocortex

Tests used:
Settings in all cases: partners not purified
[1] = biological target: B2; assay: proximity ligation; Duolink in situ PLA on fixed primary mouse neocortical neurons at 14 DIV, endogenous proteins, two antibodies (signal means 40 nm or less); PBS or 25 ng/ml HGF for 5, 10 or 30 min; PLA clusters per area of dendrite
[2] = biological target: B2; assay: co-IP; crude synaptosomes from P14 mouse neocortex, PBS or 25 ng/ml HGF for 5 min at 37 °C, lysed in HEPES pH 7.4 buffer with 1% Triton X-100; IP with goat anti-MET, mouse anti-β-catenin or rabbit anti-N-cadherin (control IgG in parallel), protein G plus agarose, washes in lysis buffer plus 150 mM NaCl; Western blot; band ratios as fold change HGF/PBS, 3 experiments
β-catenin = biological target: B3; assay: as above
N-cadherin = biological target: B4; assay: as above

| Binder | fold increase in density of PLA signal (HGF against PBS) [1] [fold] | mean fold change (HGF/PBS) of co-immunoprecipitated protein [2] [fold] | mean fold change (HGF/PBS) of co-immunoprecipitated protein (β-catenin) [fold] | mean fold change (HGF/PBS) of co-immunoprecipitated protein (N-cadherin) [fold] |
| --- | --- | --- | --- | --- |
| B1 | ~1.5 | 1.8 |  |  |
| B2 |  |  | 0.376 |  |
| B3 |  | 0.399 |  | 1.39 |
| B4 |  |  | 1.31 |  |
